Test results taken from PMC12102759 (2025).

B1: AXIN1 peptide 235-250 (Axin-1), 16-mer library wild type / PP2A B56 (PPP2R5A B56 domain, residues 1-486) (parent complex)
chain 1: SGYLPTLNEDEEWKAD
chain 2: not shown

Variants of: B1
Assay: proteomic peptide phage display deep mutational scan (ProP-PD DMS): M13 P8 16-mer library selected against immobilised GST-tagged bait for four days (rounds), NGS of the eluted pools per day and pseudo-replica; bait immobilised on MaxiSorp plates (10 µg), library pre-cleared on GST, 2 h binding at 4 °C, five washes; one round per day, days 1-4; value from days 2 and 3

Variant	screen value
chain 1 E11A	0.000236 average fractional NGS count over selection days 2 and 3 (reads of this peptide / all reads for the bait, averaged over …
chain 1 K14Y	0.00389 average fractional NGS count over selection days 2 and 3 (reads of this peptide / all reads for the bait, averaged over …
chain 1 G2E	0.000393 average fractional NGS count over selection days 2 and 3 (reads of this peptide / all reads for the bait, averaged over …
chain 1 E11R	0.000311 average fractional NGS count over selection days 2 and 3 (reads of this peptide / all reads for the bait, averaged over …
chain 1 G2A	0.00077 average fractional NGS count over selection days 2 and 3 (reads of this peptide / all reads for the bait, averaged over …
chain 1 T6I	0.000627 average fractional NGS count over selection days 2 and 3 (reads of this peptide / all reads for the bait, averaged over …
chain 1 E12V	0.000291 average fractional NGS count over selection days 2 and 3 (reads of this peptide / all reads for the bait, averaged over …
chain 1 K14H	0.00281 average fractional NGS count over selection days 2 and 3 (reads of this peptide / all reads for the bait, averaged over …
chain 1 N8H	0.000177 average fractional NGS count over selection days 2 and 3 (reads of this peptide / all reads for the bait, averaged over …
chain 1 D10F	0.000124 average fractional NGS count over selection days 2 and 3 (reads of this peptide / all reads for the bait, averaged over …
chain 1 D16L	0.000211 average fractional NGS count over selection days 2 and 3 (reads of this peptide / all reads for the bait, averaged over …
chain 1 Y3F	0.000133 average fractional NGS count over selection days 2 and 3 (reads of this peptide / all reads for the bait, averaged over …
chain 1 G2I	0.000957 average fractional NGS count over selection days 2 and 3 (reads of this peptide / all reads for the bait, averaged over …
chain 1 N8Y	0.00143 average fractional NGS count over selection days 2 and 3 (reads of this peptide / all reads for the bait, averaged over …
chain 1 A15N	0.000145 average fractional NGS count over selection days 2 and 3 (reads of this peptide / all reads for the bait, averaged over …
chain 1 D16I	0.000497 average fractional NGS count over selection days 2 and 3 (reads of this peptide / all reads for the bait, averaged over …
chain 1 K14R	0.000196 average fractional NGS count over selection days 2 and 3 (reads of this peptide / all reads for the bait, averaged over …
chain 1 N8W	0.000126 average fractional NGS count over selection days 2 and 3 (reads of this peptide / all reads for the bait, averaged over …
chain 1 A15L	0.00106 average fractional NGS count over selection days 2 and 3 (reads of this peptide / all reads for the bait, averaged over …
chain 1 K14M	0.000958 average fractional NGS count over selection days 2 and 3 (reads of this peptide / all reads for the bait, averaged over …
chain 1 D16Y	0.00243 average fractional NGS count over selection days 2 and 3 (reads of this peptide / all reads for the bait, averaged over …
chain 1 K14L	0.00437 average fractional NGS count over selection days 2 and 3 (reads of this peptide / all reads for the bait, averaged over …
chain 1 Y3L	0.000544 average fractional NGS count over selection days 2 and 3 (reads of this peptide / all reads for the bait, averaged over …
chain 1 D16W	0.000506 average fractional NGS count over selection days 2 and 3 (reads of this peptide / all reads for the bait, averaged over …
chain 1 G2M	0.0011 average fractional NGS count over selection days 2 and 3 (reads of this peptide / all reads for the bait, averaged over …

Variant	screen value
chain 1 K14T	0.000943 average fractional NGS count over selection days 2 and 3 (reads of this peptide / all reads for the bait, averaged over …
chain 1 W13F	0.000389 average fractional NGS count over selection days 2 and 3 (reads of this peptide / all reads for the bait, averaged over …
chain 1 A15F	0.000658 average fractional NGS count over selection days 2 and 3 (reads of this peptide / all reads for the bait, averaged over …
chain 1 A15S	0.000672 average fractional NGS count over selection days 2 and 3 (reads of this peptide / all reads for the bait, averaged over …
chain 1 A15W	0.000559 average fractional NGS count over selection days 2 and 3 (reads of this peptide / all reads for the bait, averaged over …
chain 1 D10A	0.00348 average fractional NGS count over selection days 2 and 3 (reads of this peptide / all reads for the bait, averaged over …
chain 1 A15M	0.00211 average fractional NGS count over selection days 2 and 3 (reads of this peptide / all reads for the bait, averaged over …
chain 1 T6P	0.000157 average fractional NGS count over selection days 2 and 3 (reads of this peptide / all reads for the bait, averaged over …
chain 1 E11N	0.00018 average fractional NGS count over selection days 2 and 3 (reads of this peptide / all reads for the bait, averaged over …
chain 1 G2V	0.000268 average fractional NGS count over selection days 2 and 3 (reads of this peptide / all reads for the bait, averaged over …
chain 1 Y3A	0.00043 average fractional NGS count over selection days 2 and 3 (reads of this peptide / all reads for the bait, averaged over …
chain 1 N8I	0.00188 average fractional NGS count over selection days 2 and 3 (reads of this peptide / all reads for the bait, averaged over …
chain 1 N8Q	0.00306 average fractional NGS count over selection days 2 and 3 (reads of this peptide / all reads for the bait, averaged over …
chain 1 K14F	0.00121 average fractional NGS count over selection days 2 and 3 (reads of this peptide / all reads for the bait, averaged over …
chain 1 D10H	0.000355 average fractional NGS count over selection days 2 and 3 (reads of this peptide / all reads for the bait, averaged over …
chain 1 N8M	0.000721 average fractional NGS count over selection days 2 and 3 (reads of this peptide / all reads for the bait, averaged over …
chain 1 G2K	0.000562 average fractional NGS count over selection days 2 and 3 (reads of this peptide / all reads for the bait, averaged over …
chain 1 E11W	0.000117 average fractional NGS count over selection days 2 and 3 (reads of this peptide / all reads for the bait, averaged over …
chain 1 E12Y	0.000809 average fractional NGS count over selection days 2 and 3 (reads of this peptide / all reads for the bait, averaged over …
chain 1 E12S	0.000153 average fractional NGS count over selection days 2 and 3 (reads of this peptide / all reads for the bait, averaged over …
chain 1 K14A	0.000829 average fractional NGS count over selection days 2 and 3 (reads of this peptide / all reads for the bait, averaged over …
chain 1 A15V	0.00273 average fractional NGS count over selection days 2 and 3 (reads of this peptide / all reads for the bait, averaged over …
chain 1 E12M	0.000888 average fractional NGS count over selection days 2 and 3 (reads of this peptide / all reads for the bait, averaged over …
chain 1 A15Q	0.000281 average fractional NGS count over selection days 2 and 3 (reads of this peptide / all reads for the bait, averaged over …
chain 1 D10N	0.000347 average fractional NGS count over selection days 2 and 3 (reads of this peptide / all reads for the bait, averaged over …

Variant	screen value
chain 1 N8V	0.022 average fractional NGS count over selection days 2 and 3 (reads of this peptide / all reads for the bait, averaged over …
chain 1 G2T	0.00134 average fractional NGS count over selection days 2 and 3 (reads of this peptide / all reads for the bait, averaged over …
chain 1 E11T	0.0139 average fractional NGS count over selection days 2 and 3 (reads of this peptide / all reads for the bait, averaged over …
chain 1 D16F	0.00025 average fractional NGS count over selection days 2 and 3 (reads of this peptide / all reads for the bait, averaged over …
chain 1 G2P	0.0013 average fractional NGS count over selection days 2 and 3 (reads of this peptide / all reads for the bait, averaged over …
chain 1 D10W	0.0017 average fractional NGS count over selection days 2 and 3 (reads of this peptide / all reads for the bait, averaged over …
chain 1 Y3Q	0.000114 average fractional NGS count over selection days 2 and 3 (reads of this peptide / all reads for the bait, averaged over …
chain 1 D10Q	0.00101 average fractional NGS count over selection days 2 and 3 (reads of this peptide / all reads for the bait, averaged over …
chain 1 N8L	0.000128 average fractional NGS count over selection days 2 and 3 (reads of this peptide / all reads for the bait, averaged over …
chain 1 D10I	0.00126 average fractional NGS count over selection days 2 and 3 (reads of this peptide / all reads for the bait, averaged over …
chain 1 A15I	0.000279 average fractional NGS count over selection days 2 and 3 (reads of this peptide / all reads for the bait, averaged over …
chain 1 A15H	0.00152 average fractional NGS count over selection days 2 and 3 (reads of this peptide / all reads for the bait, averaged over …
chain 1 A15E	0.000423 average fractional NGS count over selection days 2 and 3 (reads of this peptide / all reads for the bait, averaged over …
chain 1 D16A	0.00219 average fractional NGS count over selection days 2 and 3 (reads of this peptide / all reads for the bait, averaged over …
chain 1 D16Q	0.00121 average fractional NGS count over selection days 2 and 3 (reads of this peptide / all reads for the bait, averaged over …
chain 1 Y3W	0.00058 average fractional NGS count over selection days 2 and 3 (reads of this peptide / all reads for the bait, averaged over …
chain 1 K14S	0.000394 average fractional NGS count over selection days 2 and 3 (reads of this peptide / all reads for the bait, averaged over …
chain 1 Y3M	0.000836 average fractional NGS count over selection days 2 and 3 (reads of this peptide / all reads for the bait, averaged over …
chain 1 E11H	0.000134 average fractional NGS count over selection days 2 and 3 (reads of this peptide / all reads for the bait, averaged over …
chain 1 D10S	0.000583 average fractional NGS count over selection days 2 and 3 (reads of this peptide / all reads for the bait, averaged over …
chain 1 E11M	0.00494 average fractional NGS count over selection days 2 and 3 (reads of this peptide / all reads for the bait, averaged over …
chain 1 W13V	0.000494 average fractional NGS count over selection days 2 and 3 (reads of this peptide / all reads for the bait, averaged over …
chain 1 E12I	0.00181 average fractional NGS count over selection days 2 and 3 (reads of this peptide / all reads for the bait, averaged over …
